Numbering of substitutions follows the chain as printed. Where two headings read alike, the source gives them in different places. Values belong to the binder of their own block, whether it stands above or below them.
Legend:
[1] = biological target: T1, mouse SIRPβ1 on CHO cells (mouse); assay: flow cytometry;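 for FOB: antibody binding to cells detected with a PE-labelled secondary antibody, given as mean fluorescence intensity relative to background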
T1 construct: Whole entry
T1 chain: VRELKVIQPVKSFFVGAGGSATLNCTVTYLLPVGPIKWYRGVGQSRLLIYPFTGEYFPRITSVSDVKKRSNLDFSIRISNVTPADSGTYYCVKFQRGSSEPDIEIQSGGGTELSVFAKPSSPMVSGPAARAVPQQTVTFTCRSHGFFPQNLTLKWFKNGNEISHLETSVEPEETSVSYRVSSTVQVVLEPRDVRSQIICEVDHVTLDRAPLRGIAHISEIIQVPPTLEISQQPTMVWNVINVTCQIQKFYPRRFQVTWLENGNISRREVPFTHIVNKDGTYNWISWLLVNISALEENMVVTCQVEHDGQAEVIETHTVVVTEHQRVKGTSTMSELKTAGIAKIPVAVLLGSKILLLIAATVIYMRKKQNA
Description: (§1) Cells were then washed twice and incubated in 100 ul FACS buffer containing 0.5 μg/ml PE-conjugated secondary antibody for 30 minutes on ice. Cells were washed twice in cold FACS buffer and acquired on a BD FACS Canto. Data analysis and calculation of mean fluorescence intensity (MFI) values or 00 positive cells was performed with FlowJo (TreeStar) software version 10.0.7.
(§2) Given the high sequence similarity between receptors of the SIRPβ family, anti-SIRPβ1 antibodies were also screened for cross-reactivity to human SIRPα.

[2] = biological target: T2, human SIRPα on cells (human, UniProt P78324 31-504); assay: flow cytometry;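 for FOB: antibody binding to cells detected with a PE-labelled secondary antibody, given as mean fluorescence intensity relative to background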
T2 construct: Whole entry
Description: as §1, §2

[3] = biological target: T3, human SIRPβ1 isoform 1 on cells (human, UniProt O00241 30-398); assay: flow cytometry;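 note: antibody binding to cells detected with a PE-labelled secondary antibody, given as mean fluorescence intensity relative to background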
T3 construct: On CHO cells (low level), on BWZ/BW5147.G.1.4 cells (reporter cells co-express human DAP12) or on primary human myeloid cells; also called huSIRPβ1; BWZ-huSIRPβ1
T3 sequence (O00241 30-398): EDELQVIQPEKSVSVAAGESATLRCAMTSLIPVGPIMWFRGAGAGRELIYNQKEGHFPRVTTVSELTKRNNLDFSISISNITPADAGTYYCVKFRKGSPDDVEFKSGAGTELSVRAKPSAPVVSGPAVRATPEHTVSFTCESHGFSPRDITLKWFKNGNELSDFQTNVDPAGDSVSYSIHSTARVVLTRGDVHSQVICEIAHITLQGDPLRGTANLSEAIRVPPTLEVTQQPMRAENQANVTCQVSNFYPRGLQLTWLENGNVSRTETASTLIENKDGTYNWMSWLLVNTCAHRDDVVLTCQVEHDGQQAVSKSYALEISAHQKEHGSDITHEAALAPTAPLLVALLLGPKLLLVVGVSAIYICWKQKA
Description: as §1, §2

[4] = biological target: T1, mouse SIRPβ1 on CHO cells; assay: flow cytometry;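 for FOB: antibody binding to cells detected with a PE-labelled secondary antibody, given as mean fluorescence intensity relative to background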
[5] = biological target: T2, human SIRPα on cells; assay: flow cytometry; remark: listed apart in the source
[6] = biological target: T3, human SIRPβ1 isoform 1 on cells; assay: cell binding titration; target not given
[7] = biological target: T4, human SIRPα domain 1 (D1) Fc fusion (human, UniProt P78324 32-149); assay: Octet, IgG avid
T4 construct: also called human SIRPα D1-Fc; Human SIRPα Fc; not shown: C-terminal human IgG1 Fc

[8] = biological target: T5, human SIRPβ1 domain 1 (D1) Fc fusion (human, UniProt O00241 30-148); assay: Octet, Fab monovalent
T5 construct: Made in HEK293/T cells with a heterologous signal peptide; also called Human SIRPβ1 D1-Fc; Human SIRPβ1-Fc; not shown: C-terminal human IgG1 Fc
T5 sequence (O00241 30-148 limits assumed): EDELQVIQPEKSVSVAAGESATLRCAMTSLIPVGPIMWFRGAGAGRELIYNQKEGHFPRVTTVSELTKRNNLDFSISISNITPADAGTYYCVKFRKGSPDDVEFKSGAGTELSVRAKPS

[9] = biological target: T5, human SIRPβ1 domain 1 (D1) Fc fusion; assay: Octet, Fab monovalent; remark: listed apart in the source
Description: Briefly, Octet affinity measurements were performed by loading IgGs on-line onto AHQ sensors. Sensors were equilibrated off-line in assay buffer for 30 min and then monitored on-line for 60 seconds for baseline establishment. For avid binding measurement, sensors with loaded IgGs were exposed to 100 nM antigen (human SIRPα domain 1 (D1) Fc fusion or SIRPβ1 domain 1 (D1) Fc fusion) for 3 min, and then transferred to assay buffer for 3 min for off-rate measurement. Additional avid binding was determined by loading biotinylated SIRPβ1 monomer on SA sensors and exposing to 100 nM IgG in solution. Monovalent binding measurements were obtained by loading human SIRPα- or SIRPβ1-Fc fusion antigens onto AHQ sensor, followed by exposure to 100 nM anti-SIRPβ1 antibody Fab. Additional monovalent measurements were made by loading biotinylated human SIRPα or SIRPβ1 monomer to SA sensor followed by exposure to 100 nM Fab in solution. Kinetics data were fit using a 1:1 binding model in the data analysis software provided by ForteBio (ForteBio Data Analysis Software 7.0).

B1: SB-40-19 (antibody, V domains shown)
VH: QVQLVQSGAEVKKPGASVKVSCKASGYTFTSYYMVWVRQAPGQGLEWMGIINPSSGATNYAQKFQGRVTMTTDTSTSTAYMELRSLRSDDTAVYYCARDTGEYSYSPHGMDVWGQGTTVTVSS
VL: EIVLTQSPATLSLSPGERATLSCRASQSVSSYLAWYQQKPGQAPRLLIYDSSNRATGIPARFSGSGSGTDFTLTISSLEPEDFAVYYCQQRDEHPPWTFGGGTKVEIK
notes: IgG
FOB [1]: 2 fold over background | FOB [2]: 1 fold over background | FOB [3]: 3 fold over background | binding result [4]: no binding (tested: 1 ug/ml) | binding result [5]: no binding (tested: 1 ug/ml) | EC50 [6]: 0.713 nM | binding result [7]: no binding (tested: 100 nM)

B4: SB-1-4 (antibody, V domains shown)
VH: QVQLVESGGGVVQPGGSLRLSCAASGFTFSAYGMNWVRQAPGKGLEWVSAIRASGGATYYADSVKGRFTISRDNSKNTLYLQMNSLRAEDTAVYYCAKDFTEVVGWLGMDVWGQGTTVTVSS
VL: EIVMTQSPGTLSLSPGERATLSCRASQSVSSSYLAWYQQKPGQAPRLLIYGASSRATGIPDRFSGSGSGTDFTLTISRLEPEDFAVYYCQLLGSSPRTFGGGTKVEIK
notes: IgG
FOB [1]: 1 fold over background | FOB [2]: 1 fold over background | FOB [3]: 3 fold over background | binding result [4]: no binding (tested: 1 ug/ml) | binding result [5]: no binding (tested: 1 ug/ml) | EC50 [6]: 0.073 nM | binding result [7]: no binding (tested: 100 nM)

B5: SB-2-10 (antibody, V domains shown)
VH: EVQLLESGGGLVQPGGSLRLSCAASGFTFGSYGMHWVRQAPGKGLEWVSAISGLAGQTYADSVKGRFTISRDNSKNTLYLQMNSLRAEDTAVYYCARDQTAAAAIWGMDVWGQGTTVTVSS
VL: B4 VL with M4L, L91Q, L92S, G93S, S95H, R97F
notes: IgG
FOB [1]: 2 fold over background | FOB [2]: 1 fold over background | FOB [3]: 4 fold over background | binding result [4]: no binding (tested: 1 ug/ml) | binding result [5]: no binding (tested: 1 ug/ml) | EC50 [6]: 0.234 nM | binding result [7]: no binding (tested: 100 nM)

B6: SB-2-9 (antibody, V domains shown)
VH: QVQLVESGGGVVQPGRSLRLSCAASGFTFKTYGMHWVRQAPGKGLEWVAHIWYEGSNKVYADSVKGRFTISRDNSKNTLYLQMNSLRAEDTAVYYCARDQTAAAAIWGMDVWGQGTTVTVSS
VL: B4 VL with I2V, M4L, L91Q, L92S, G93S, S95H, R97F
notes: IgG
FOB [1]: 2 fold over background | FOB [2]: 1 fold over background | FOB [3]: 4 fold over background | binding result [4]: no binding (tested: 1 ug/ml) | binding result [5]: no binding (tested: 1 ug/ml) | EC50 [6]: 0.469 nM | binding result [7]: no binding (tested: 100 nM)

B7: SB-1-5 (antibody, V domains shown)
VH: B4 VH with G16R, R52S, G56R, A57S, Y59F
VL: B4 VL
notes: IgG
FOB [1]: 2 fold over background | FOB [2]: 1 fold over background | FOB [3]: 3 fold over background | binding result [4]: no binding (tested: 1 ug/ml) | binding result [5]: no binding (tested: 1 ug/ml) | EC50 [6]: 0.038 nM | binding result [7]: no binding (tested: 100 nM)

B9: SB-2-11 (antibody, V domains shown)
VH: B5 VH with E1Q, L5V, G30A, S31R, Q57P, A103W, A104G
VL: B4 VL with M4L, L91Q, L92S, G93S, S95H, R97F
notes: IgG
FOB [1]: 2 fold over background | FOB [2]: 0 fold over background | FOB [3]: 6 fold over background | binding result [4]: no binding (tested: 1 ug/ml) | binding result [5]: no binding (tested: 1 ug/ml) | EC50 [6]: 0.22 nM | binding result [7]: no binding (tested: 100 nM)

B11: SB-6 Fab (Fab, V domains shown)
VH: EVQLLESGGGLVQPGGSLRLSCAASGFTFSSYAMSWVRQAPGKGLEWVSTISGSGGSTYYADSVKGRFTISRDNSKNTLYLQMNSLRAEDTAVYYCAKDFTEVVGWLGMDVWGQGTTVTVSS
VL: B4 VL with M4L, L91Q, L92S, S94H, S95L, R97I
notes: Fab by papain digestion
Kd [9]: 131 nM

The next lines start with the values.

Kd [8]: 918 nM | Kd [9]: 427 nM
B2: SB-40 Fab (Fab, V domains shown)
VH: B1 VH with V35S, S55G, A57S, N59S, T72R, A79V, R84S, D89E
VL: B1 VL
notes: Fab by papain digestion

FOB [1]: 2 fold over background | FOB [2]: 1 fold over background | FOB [3]: 4 fold over background | binding result [4]: no binding (tested: 1 ug/ml) | binding result [5]: no binding (tested: 1 ug/ml) | EC50 [6]: 0.32 nM | binding result [7]: no binding (tested: 100 nM)
B3: SB-40-18 (antibody, V domains shown)
VH: QVQLVQSGAEVKKPGASVKVSCKASGYTFTSYYMAWVRQAPGQRLEWMGWINPAVGATIYSQKFQGRVTITRDTSASTAYMELSSLRSEDTAVYYCARDTGEYSYSPHGMDVWGQGTTVTVSS
VL: B1 VL
notes: IgG

FOB [1]: 1 fold over background | FOB [3]: 7 fold over background | binding result [4]: no binding (tested: 1 ug/ml) | EC50 [6]: 0.304 nM | Kd [7]: 18.3 nM
B8: SB-8-14 (antibody, V domains shown)
VH: QVQLQESGPGLVKPSETLSLTCAVSGYSISPHYYWGWIRQPPGKGLEWIGSIYHSGHTYYNPSLKSRVTISVDTSKNQFSLKLSSVTAADTAVYYCARGGAMTPAGMDVWGQGTTVTVSS
VL: B4 VL with S54N, L91Q, L92V, G93Y, R97Y
notes: IgG

FOB [1]: 2 fold over background | FOB [2]: 1 fold over background | FOB [3]: 9 fold over background | binding result [4]: no binding (tested: 1 ug/ml) | binding result [5]: no binding (tested: 1 ug/ml) | EC50 [6]: 0.147 nM | binding result [7]: no binding (tested: 100 nM)
B10: SB-8-16 (antibody, V domains shown)
VH: B8 VH with P31A, Y53F, G99A
VL: B4 VL with S54N, L91Q, L92V, G93Y, R97Y
notes: IgG

Kd [9]: 156 nM
B12: SB-49 Fab (Fab, V domains shown)
VH: QLQLQESGPGLVKPSETLSLTCTVSGGSISSSDYYWGWIRQPPGKGLEWIGSIYYSGSTYYNPSLKSRVTISVDTSKNQFSLKLSSVTAADTAVYYCARGPTGYKDKWRYYYGMDVWGQGTTVTVSS
VL: DIQMTQSPSSLSASVGDRVTITCQASQDITNYLNWYQQKPGKAPKLLIYDASNLETGVPSRFSGSGSGTDFTFTISSLQPEDIATYYCQQYFHPPLTFGGGTKVEIK
notes: Fab by papain digestion

Kd [9]: 246 nM
B13: SB-17 Fab (Fab, V domains shown)
VH: QVQLVQSGAEVKKPGASVKVSCKASGYTFTSYGISWVRQAPGQGLEWMGWISAYNGNTNYAQKLQGRVTMTTDTSTSTAYMELRSLRSDDTAVYYCARGPLLYGDYHVRYGMDVWGQGTTVTVSS
VL: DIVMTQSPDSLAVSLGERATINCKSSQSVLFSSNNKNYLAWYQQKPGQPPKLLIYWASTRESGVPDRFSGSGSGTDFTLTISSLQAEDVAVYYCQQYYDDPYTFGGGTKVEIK
notes: Fab by papain digestion

Kd [9]: 407 nM
B14: SB-15 Fab (Fab, V domains shown)
VH: QLQLQESGPGLVKPSETLSLTCTVSGGSISSNSYYWGWIRQPPGKGLEWIGSIYYSGSTYYNPSLKSRVTISVDTSKNQFSLKLSSVTAADTAVYYCAREVGAPPSYPFDIWGQGTMVTVSS
VL: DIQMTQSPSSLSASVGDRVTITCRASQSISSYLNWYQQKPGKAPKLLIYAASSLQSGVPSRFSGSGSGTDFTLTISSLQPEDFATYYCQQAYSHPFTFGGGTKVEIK
notes: Fab by papain digestion

Kd [9]: 678 nM
B15: SB-11 Fab (Fab, V domains shown)
VH: QVQLVQSGAEVKKPGSSVKVSCKASGGTFSNYAISWVRQAPGQGLEWMGGIIPIFGTANYAQKFQGRVTITADESTSTAYMELSSLRSEDTAVYYCARPVDSSSYSLGYYYGMDVWGKGTTVTVSS
VL: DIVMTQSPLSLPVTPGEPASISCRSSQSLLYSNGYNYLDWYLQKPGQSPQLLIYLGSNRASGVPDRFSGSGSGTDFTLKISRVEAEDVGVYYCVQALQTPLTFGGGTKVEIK
notes: Fab by papain digestion

Reference: patent US20250026827A1 (Alector, published 2025)
